Here are results for 2 molecules from PMC7865352, “The Relevance of the SH2 Domain for c-Src Functionality in Triple-Negative Breast Cancer Cells”.

The data set concerns the target GST-SH2 (c-Src SH2 domain) (human, UniProt P12931 151-248). The data set is described as follows: ELONA; ELONA with plated GST proteins and digoxigenin-labelled aptamers (buffer not given in material); selection in PBS + 1 mM Mg, 37 C. The following applies: protein: recombinant, label: digoxigenin.

B1: ApSH2.17F (ssDNA)
DNA: GCGGATGAAGACTGGTGTGCGGTGGTGGGTTGGGTGGGTGGGTTTGCGGGTTGCGTTGGCCCTAAATACGAGCAAC
As for B1, the binding result (G-quadruplex examined in silico) is given as “binds”.

B2: ApSH2.14F (ssDNA)
DNA: GCGGATGAAGACTGGTGTAGACAATGGATACTCCCGCCACCTCCTCCCCCGCCCCCCCGCCCTAAATACGAGCAAC
Regarding B2, the binding result is listed as “binds”.
